The results in this text go back to article PMC7702303, “Biochemical and transcript level differences between the three human phosphofructokinases show optimisation of each isoform for specific metabolic niches” (Biochemical Journal, 2020).

One may read the kcat as the maximal rate divided by the concentration of active sites. Broadly, the stoichiometry N is a count of units in the complex or per binding partner.

Substrate in data set [1]: O=C(CO)[C@@H](O)[C@H](O)[C@H](O)COP(=O)(O)O
Put plainly: ALDO-TIM-G3PDH enzyme-linked kinetic assay, PFK-L. It is filed as biochemical, human. The conditions noted are these: other: PFK-L; F6P titration, ATP 0.5 mM; n = 6; mean (SD); pH 7.4; 25.0 °C. The procedure:
(§1) Recombinant human PFKs were expressed in PFK-deficient Saccharomyces cerevisiae and purified using the methods described previously, adapting earlier materials and protocols. Production of PFK intended for use in ATP titration experiments used 1 mM F6P as a tetramer stabilising agent in protein purification and storage buffers. Production of PFK intended for use in F6P titration experiments used 1 mM ATP as a tetramer stabilising agent in protein purification and storage buffers. Experimental details on the purification and characterisation procedures including figures showing SDS–PAGE gels of the highly pure PFKs used in the kinetic experiments described in this work have been recently published.
(§2) Assay buffer consisted of 50 mM TEA, 100 mM KCl, 10 mM MgCl2, 1 mM Tris(2-carboxyethyl)phosphine hydrochloride (TCEP), 10% glycerol, pH 7.4. Assay mix consisted of 5 units/ml glycerol-3-phosphate dehydrogenase (G3PDH, Sigma–Aldrich G6880), 2.5 units/ml aldolase (Sigma–Aldrich A2714), 25 units/ml triosephosphate isomerase (TIM, Sigma–Aldrich T6258), and 1.25 mM NADH. […] A SpectraMax M5 Multi-Mode Microplate Reader was used to measure A340nm at 13 s intervals for 10 min. […]
(§3) Time-dependent absorbance change was converted into rate of NADH oxidation (µM s^−1) or specific activity (µmol min^−1 mg protein^−1) using the Beer-Lambert law (molar extinction coefficient of NADH 6.22 mM^−1 cm^−1). […]

Data set [2] concerns the molecule itself. Put plainly: SEC; size-exclusion chromatography of purified recombinant PFK isoforms, buffer and protein concentration not told in the main text (Supplementary Figure S2); tetramer to dimers. A general note: SEC sorts molecules by how far they enter the pores of the column.
Substrate in data set [3]: O=C(CO)[C@@H](O)[C@H](O)[C@H](O)COP(=O)(O)O
Put plainly: ALDO-TIM-G3PDH enzyme-linked kinetic assay, PFK-M. The format is biochemical, human. The settings on record: other: PFK-M; F6P titration, ATP 0.5 mM; n = 6; mean (SD); pH 7.4; 25.0 °C. As for the experimental part: as §1, §2, §3

B1: human 6-phosphofructokinase-1-kinase, liver isoform (PFK-L) (enzyme, UniProt P17858 1-780, looked up)
chain: MAAVDLEKLRASGAGKAIGVLTSGGDAQGMNAAVRAVTRMGIYVGAKVFLIYEGYEGLVEGGENIKQANWLSVSNIIQLGGTIIGSARCKAFTTREGRRAAAYNLVQHGITNLCVIGGDGSLTGANIFRSEWGSLLEELVAEGKISETTARTYSHLNIAGLVGSIDNDFCGTDMTIGTDSALHRIMEVIDAITTTAQSHQRTFVLEVMGRHCGYLALVSALASGADWLFIPEAPPEDGWENFMCERLGETRSRGSRLNIIIIAEGAIDRNGKPISSSYVKDLVVQRLGFDTRVTVLGHVQRGGTPSAFDRILSSKMGMEAVMALLEATPDTPACVVTLSGNQSVRLPLMECVQMTKEVQKAMDDKRFDEATQLRGGSFENNWNIYKLLAHQKPPKEKSNFSLAILNVGAPAAGMNAAVRSAVRTGISHGHTVYVVHDGFEGLAKGQVQEVGWHDVAGWLGRGGSMLGTKRTLPKGQLESIVENIRIYGIHALLVVGGFEAYEGVLQLVEARGRYEELCIVMCVIPATISNNVPGTDFSLGSDTAVNAAMESCDRIKQSASGTKRRVFIVETMGGYCGYLATVTGIAVGADAAYVFEDPFNIHDLKVNVEHMTEKMKTDIQRGLVLRNEKCHDYYTTEFLYNLYSSEGKGVFDCRTNVLGHLQQGGAPTPFDRNYGTKLGVKAMLWLSEKLREVYRKGRVFANAPDSACVIGLKKKAVAFSPVTELKKDTDFEHRMPREQWWLSLRLMLKMLAQYRISMAAYVSGELEHVTRRTLSMDKGF
notes: human phosphofructokinase, liver isoform (PFK-L), recombinant; Active form is a tetramer in equilibrium with dimers
Consider B1, for which the kcat in data set [1] came out at 5.38 s⁻¹. Also, the binding result in data set [2] is listed as “binds”.

B2: human 6-phosphofructokinase-1-kinase, muscle isoform (PFK-M) (enzyme, UniProt P08237 1-780, looked up)
chain: MTHEEHHAAKTLGIGKAIAVLTSGGDAQGMNAAVRAVVRVGIFTGARVFFVHEGYQGLVDGGDHIKEATWESVSMMLQLGGTVIGSARCKDFREREGRLRAAYNLVKRGITNLCVIGGDGSLTGADTFRSEWSDLLSDLQKAGKITDEEATKSSYLNIVGLVGSIDNDFCGTDMTIGTDSALHRIMEIVDAITTTAQSHQRTFVLEVMGRHCGYLALVTSLSCGADWVFIPECPPDDDWEEHLCRRLSETRTRGSRLNIIIVAEGAIDKNGKPITSEDIKNLVVKRLGYDTRVTVLGHVQRGGTPSAFDRILGSRMGVEAVMALLEGTPDTPACVVSLSGNQAVRLPLMECVQVTKDVTKAMDEKKFDEALKLRGRSFMNNWEVYKLLAHVRPPVSKSGSHTVAVMNVGAPAAGMNAAVRSTVRIGLIQGNRVLVVHDGFEGLAKGQIEEAGWSYVGGWTGQGGSKLGTKRTLPKKSFEQISANITKFNIQGLVIIGGFEAYTGGLELMEGRKQFDELCIPFVVIPATVSNNVPGSDFSVGADTALNTICTTCDRIKQSAAGTKRRVFIIETMGGYCGYLATMAGLAAGADAAYIFEEPFTIRDLQANVEHLVQKMKTTVKRGLVLRNEKCNENYTTDFIFNLYSEEGKGIFDSRKNVLGHMQQGGSPTPFDRNFATKMGAKAMNWMSGKIKESYRNGRIFANTPDSGCVLGMRKRALVFQPVAELKDQTDFEHRIPKEQWWLKLRPILKILAKYEIDLDTSDHAHLEHITRKRSGEAAV
notes: human phosphofructokinase, muscle isoform (PFK-M), recombinant; Active form is a tetramer in equilibrium with dimers
Consider B2, for which the kcat in data set [3] was found to be 8.11 s⁻¹. Moreover, the “stoichiometry N” value in data set [2] came out at 4.
